How the values were obtained:
[1] = target: T1, human CD73 expressed on the cell surface (human, UniProt P21589 27-549); experiment: cell-based or functional assay
T1 sequence: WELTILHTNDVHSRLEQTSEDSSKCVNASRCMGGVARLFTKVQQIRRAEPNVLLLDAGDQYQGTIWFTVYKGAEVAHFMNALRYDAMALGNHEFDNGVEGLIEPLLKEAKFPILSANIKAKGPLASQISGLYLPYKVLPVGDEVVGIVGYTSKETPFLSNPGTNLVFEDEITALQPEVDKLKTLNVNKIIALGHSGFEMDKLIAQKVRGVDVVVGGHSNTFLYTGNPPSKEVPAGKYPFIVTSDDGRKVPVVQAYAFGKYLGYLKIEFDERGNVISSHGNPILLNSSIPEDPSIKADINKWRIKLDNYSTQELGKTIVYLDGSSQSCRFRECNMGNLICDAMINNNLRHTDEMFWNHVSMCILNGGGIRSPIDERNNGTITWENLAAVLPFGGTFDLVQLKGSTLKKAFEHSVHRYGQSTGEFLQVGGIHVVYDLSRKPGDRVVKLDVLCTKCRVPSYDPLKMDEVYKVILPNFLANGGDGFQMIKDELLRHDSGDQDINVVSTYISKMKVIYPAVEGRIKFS

human CD73 antigen = target: T2, human CD73 antigen (human, UniProt P21589 27-547); experiment: ForteBio BLI; antigen on sensor, 100 nM scFv; monovalent; 1:1 model
T2 construct: also called Biotinylated Human CD73
T2 sequence (looked up): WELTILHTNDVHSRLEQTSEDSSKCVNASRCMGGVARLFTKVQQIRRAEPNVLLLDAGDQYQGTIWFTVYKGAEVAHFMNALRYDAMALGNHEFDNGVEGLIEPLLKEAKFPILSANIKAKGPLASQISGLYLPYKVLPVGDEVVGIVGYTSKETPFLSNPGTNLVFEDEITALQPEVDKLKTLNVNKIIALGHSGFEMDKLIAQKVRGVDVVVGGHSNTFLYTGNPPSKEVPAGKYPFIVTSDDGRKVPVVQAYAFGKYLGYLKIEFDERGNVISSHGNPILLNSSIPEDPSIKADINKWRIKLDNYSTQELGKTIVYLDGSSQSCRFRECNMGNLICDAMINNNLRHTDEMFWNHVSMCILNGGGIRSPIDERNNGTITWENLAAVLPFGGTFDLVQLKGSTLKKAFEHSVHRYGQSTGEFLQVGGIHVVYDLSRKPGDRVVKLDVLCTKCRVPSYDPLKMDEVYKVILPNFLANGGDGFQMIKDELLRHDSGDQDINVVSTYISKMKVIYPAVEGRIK
Procedure: (§1) Human or cynomolgus monkey CD73 antigen protein was loaded on-line to the AHQ sensor (ForteBio) for ForteBio affinity measurement. […] Kinetic analysis was performed by using a 1:1 binding model.

[2] = target: T3, cynomolgus monkey CD73 antigen (cynomolgus monkey, UniProt A0A2K5V5U7 27-547); experiment: as above
T3 construct: also called Biotinylated cynomolgus monkey CD73
T3 sequence: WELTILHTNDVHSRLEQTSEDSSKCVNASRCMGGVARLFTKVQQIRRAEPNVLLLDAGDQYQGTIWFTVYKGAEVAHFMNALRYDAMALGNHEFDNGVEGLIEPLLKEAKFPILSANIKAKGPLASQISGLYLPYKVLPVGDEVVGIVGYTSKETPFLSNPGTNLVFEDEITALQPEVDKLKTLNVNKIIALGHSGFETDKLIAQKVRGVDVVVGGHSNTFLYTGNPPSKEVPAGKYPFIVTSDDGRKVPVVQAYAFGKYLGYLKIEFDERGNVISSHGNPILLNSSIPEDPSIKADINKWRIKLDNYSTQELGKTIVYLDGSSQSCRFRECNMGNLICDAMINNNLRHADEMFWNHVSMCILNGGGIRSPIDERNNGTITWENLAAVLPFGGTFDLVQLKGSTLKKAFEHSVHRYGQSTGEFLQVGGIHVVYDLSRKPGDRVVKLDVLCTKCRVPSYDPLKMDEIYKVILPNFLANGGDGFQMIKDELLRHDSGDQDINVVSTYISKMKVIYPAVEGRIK
Procedure: as §1

B1: ADI-37532 (antibody, human IgG4 S228P, kappa, F234A L235A, V domains shown)
VH: QVQLVESGGGVVQPGRSLRLSCAASGFTFSSYSMHWVRQAPGKGLEWVAHIVEGSDKYYADSVKGRFTISRDNSKNTLYLQMNSLRAEDTAVYYCARSRYDWSLFDIWGQGTMVTVSS
VL: EIVLTQSPGTLSLSPGERATLSCGASQSVSSSYLAWYQQKPGQAPRLLIYGASSRATGIPDRFSGSGSGTDFTLTISRLEPEDFAVYYCQQYVLYPFTFGGGTKVEIKR
- IC50 for inhibiting the enzymatic activity of CD73 (Calu-6 cells) [1]: 0.114 µg/mL

B2: ADI-37504 (antibody, human IgG4 S228P, kappa, F234A L235A, V domains shown)
VH: EVQLLESGGGLVQPGGSLRLSCAASGFTFHNYAMSWVRQAPGKGLEWVSAISGTGRATYYADSVKGRFTISRDNSKNTLYLQMNSLRAEDTAVYYCARGGPYGSGSYWDTFDYWGQGTLVTVSS
VL: EIVMTQSPATLSVSPGERATLSCRASQSVSSNLAWYQQKPGQAPRLLIYGASTRATGIPARFSGSGSGTEFTLTISSLQSEDFAVYYCQQYTNHYTFGGGTKVEIKR
- IC50 for inhibiting the enzymatic activity of CD73 (Calu-6 cells) [1]: 0.07 µg/mL

B3: ADI-37503 (antibody, human IgG4 S228P, kappa, F234A L235A, V domains shown)
VH: EVQLLESGGGLVQPGGSLRLSCAASGFTFSNYAMSWVRQAPGKGLEWVSAISGRASSTYYADSVKGRFTISRDNSKNTLYLQMNSLRAEDTAVYYCARGGPYGSGSYWDTFDYWGQGTLVTVSS
VL: EIVMTQSPATLSVSPGERATLSCRASQSVSSNLAWYQQKPGQAPRLLIYGASTRATGIPARFSGSGSGTEFTLTISSLQSEDFAVYYCQQYTNHYTFGGGTKVEIKR
- IC50 for inhibiting the enzymatic activity of CD73 (Calu-6 cells) [1]: 0.062 µg/mL

B4: ADI-37507 (antibody, human IgG4 S228P, kappa, F234A L235A, V domains shown)
VH: EVQLLESGGGLVQPGGSLRLSCAASGFTFLNYAMAWVRQAPGKGLEWVSAISGRATSTYYADSVKGRFTISRDNSKNTLYLQMNSLRAEDTAVYYCARGGPYGSGSYWDTFDYWGQGTLVTVSS
VL: EIVMTQSPATLSVSPGERATLSCRASQSVSSNLAWYQQKPGQAPRLLIYGASTRATGIPARFSGSGSGTEFTLTISSLQSEDFAVYYCQQYTNHYTFGGGTKVEIKR
- IC50 for inhibiting the enzymatic activity of CD73 (Calu-6 cells) [1]: 0.078 µg/mL

B5: scfv fragment of ADI-37503 (scFv, V domains shown)
VH: EVQLLESGGGLVQPGGSLRLSCAASGFTFSNYAMSWVRQAPGKGLEWVSAISGRASSTYYADSVKGRFTISRDNSKNTLYLQMNSLRAEDTAVYYCARGGPYGSGSYWDTFDYWGQGTLVTVSS
VL: EIVMTQSPATLSVSPGERATLSCRASQSVSSNLAWYQQKPGQAPRLLIYGASTRATGIPARFSGSGSGTEFTLTISSLQSEDFAVYYCQQYTNHYTFGGGTKVEIK
- Kd (human CD73 antigen): 7.95 nM
- Kd [2]: 6.61 nM

B6: scfv fragment of ADI-37505 (scFv, V domains shown)
VH: QVQLVESGGGLVQPGGSLRLSCAASGFTFSNYAMTWVRQAPGKGLEWVSAISGRGTATYYADSVKGRFTISRDNSKNTLYLQMNSLRAEDTAVYYCARGGPYGSGSYWDTFDYWGQGTLVTVSS
VL: EIVMTQSPATLSVSPGERATLSCRASQSVSSNLAWYQQKPGQAPRLLIYGASTRATGIPARFSGSGSGTEFTLTISSLQSEDFAVYYCQQYTNHYTFGGGTKVEIK
- Kd (human CD73 antigen): 5.56 nM
- Kd [2]: 5.34 nM

B7: scfv fragment of ADI-37506 (scFv, V domains shown)
VH: EVQLLESGGGLVQPGGSLRLSCAASGFTFSNLAMSWVRQAPGKGLEWVSAISGRATSTYYADSVKGRFTISRDNSKNTLYLQMNSLRAEDTAVYYCARGGPYGSGSYWDTFDYWGQGTLVTVSS
VL: EIVMTQSPATLSVSPGERATLSCRASQSVSSNLAWYQQKPGQAPRLLIYGASTRATGIPARFSGSGSGTEFTLTISSLQSEDFAVYYCQQYTNHYTFGGGTKVEIK
- Kd (human CD73 antigen): 5.41 nM
- Kd [2]: 4.77 nM

B8: scfv fragment of ADI-37504 (scFv, V domains shown)
VH: EVQLLESGGGLVQPGGSLRLSCAASGFTFHNYAMSWVRQAPGKGLEWVSAISGTGRATYYADSVKGRFTISRDNSKNTLYLQMNSLRAEDTAVYYCARGGPYGSGSYWDTFDYWGQGTLVTVSS
VL: EIVMTQSPATLSVSPGERATLSCRASQSVSSNLAWYQQKPGQAPRLLIYGASTRATGIPARFSGSGSGTEFTLTISSLQSEDFAVYYCQQYTNHYTFGGGTKVEIK
- Kd (human CD73 antigen): 15.4 nM
- Kd [2]: 20.2 nM

B9: scfv fragment of ADI-37507 (scFv, V domains shown)
VH: EVQLLESGGGLVQPGGSLRLSCAASGFTFLNYAMAWVRQAPGKGLEWVSAISGRATSTYYADSVKGRFTISRDNSKNTLYLQMNSLRAEDTAVYYCARGGPYGSGSYWDTFDYWGQGTLVTVSS
VL: EIVMTQSPATLSVSPGERATLSCRASQSVSSNLAWYQQKPGQAPRLLIYGASTRATGIPARFSGSGSGTEFTLTISSLQSEDFAVYYCQQYTNHYTFGGGTKVEIK
- Kd (human CD73 antigen): 9.21 nM
- Kd [2]: 23.7 nM

B10: ADI-37542 (antibody, human IgG4 S228P, kappa, F234A L235A, V domains shown)
VH: QVQLQESGPGLVKPSETLSLTCAVSGYSISEGYYWGWIRQPPGKGLEWIGSIYHTGFTYYNPSLKSRVTISVDTSKNQFSLKLSSVTAADTAVYYCARASIYTPPPEYFQHWGQGTLVTVSS
VL: DIQMTQSPSTLSASVGDRVTITCRASQSISSWLAWYQQKPGKAPKLLIYDASSLESGVPSRFSGSGSGTEFTLTISSLQPDDFATYYCQQSRIYSTFGGGTKVEIKR
- IC50 for inhibiting the enzymatic activity of CD73 (Calu-6 cells) [1]: 0.189 µg/mL

B11: ADI-37543 (antibody, human IgG4 S228P, kappa, F234A L235A, V domains shown)
VH: QVQLQESGPGLVKPSETLSLTCAVSGYSISSGYYWAWIRQPPGKGLEWIGSIFHSGFTFYNPSLKSRVTISVDTSKNQFSLKLSSVTAADTAVYYCARASIYTPPPEYFQHWGQGTLVTVSS
VL: DIQMTQSPSTLSASVGDRVTITCRASQSISSWLAWYQQKPGKAPKLLIYDASSLESGVPSRFSGSGSGTEFTLTISSLQPDDFATYYCQQSRIYSTFGGGTKVEIKR
- IC50 for inhibiting the enzymatic activity of CD73 (Calu-6 cells) [1]: 0.196 µg/mL

B12: ADI-37497 (antibody, human IgG4 S228P, kappa, F234A L235A, V domains shown)
VH: EVQLVESGGGLVQPGGSLRLSCAASGFTFDDYFMHWVRQAPGKGLEWVSGISWSSGPIDYADSVKGRFTISRDNAKNSLYLQMNSLRAEDTAVYYCAKGKYLPTGSVDYWGQGTLVTVSS
VL: EIVLTQSPGTLSLSPGERATLSCRASQSVSSSYLAWYQQKPGQAPRLLIYGASSRATGIPDRFSGSGSGTDFTLTISRLEPEDFAVYYCQQYYDYPPITFGGGTKVEIKR
- IC50 for inhibiting the enzymatic activity of CD73 (Calu-6 cells) [1]: 0.147 µg/mL

B13: ADI-37496 (antibody, human IgG4 S228P, kappa, F234A L235A, V domains shown)
VH: EVQLVESGGGLVQPGRSLRLSCAASGFTFDDFYMHWVRQAPGKGLEWVSGISWSSTSIDYADSVKGRFTISRDNAKNSLYLQMNSLRAEDTAVYYCAKGKYLPTGSVDYWGQGTLVTVSS
VL: EIVLTQSPGTLSLSPGERATLSCRASQSVSSSYLAWYQQKPGQAPRLLIYGASSRATGIPDRFSGSGSGTDFTLTISRLEPEDFAVYYCQQYYDYPPITFGGGTKVEIKR
- IC50 for inhibiting the enzymatic activity of CD73 (Calu-6 cells) [1]: 0.173 µg/mL

B14: ADI-37513 (antibody, human IgG4 S228P, kappa, F234A L235A, V domains shown)
VH: EVQLLESGGGVVQPGRSLRLSCAASGFTFNFYGMHWVRQAPGKGLEWVAVINDEGINKYYADSVKGRFTISRDNSKNTLYLQMNSLRAEDTAVYYCARGGARYPIAFDIWGQGTMVTVSS
VL: DIQLTQSPSSVSASVGDRVTITCRASQDISSWLAWYQQKPGKAPKLLIYAASSLQSGVPSRFSGSGSGTDFTLTISSLQPEDFATYYCQQANDFPITFGGGTKVEIKR
- IC50 for inhibiting the enzymatic activity of CD73 (Calu-6 cells) [1]: 0.143 µg/mL

B15: ADI-37522 (antibody, human IgG4 S228P, kappa, F234A L235A, V domains shown)
VH: QVQLVESGGGVVQPGRSLRLSCAASGFTFSHYGMHWVRQAPGKGLEWVAVISDEGSNKYYADSVKGRFTISRDNSKNTLYLQMNSLRAEDTAVYYCARGWLRYPIAFDIWGQGTMVTVSS
VL: DIQLTQSPSSVSASVGDRVTITCRASQDISSWLAWYQQKPGKAPKLLIYAASSLQSGVPSRFSGSGSGTDFTLTISSLQPEDFATYYCQQANDFPITFGGGTKVEIKR
- IC50 for inhibiting the enzymatic activity of CD73 (Calu-6 cells) [1]: 0.146 µg/mL
